Results: paper PMC7761207, “Molecular Characterization of the Burkholderia cenocepacia dcw Operon and FtsZ Interactors as New Targets for Novel Antimicrobial Design” (Antibiotics, 2020)
Where two headings read alike, the source gives them in different places.

B1: B. cenocepacia J2315 FtsA, BACTH hybrid (natural protein, Burkholderia cenocepacia J2315, UniProt B4E6I8 1-410, looked up)
chain: MSKDYKDLLVSLDIGTSKVVAIVAELKGEGHYEVIGLGQSESKGLKKGVVVNIEATVQSIQRALEEAELMADCKITNVFTGIAGSHIRSFNSSGMVAIKDKEVTQTDVARVIETAKAINIPTDQQVLHILTQEFIIDGQEDVREPIGMSGIRLEVKVHIVTGAVSAAQNIVKCVRRCGLEVNDLILQPLASSLAVLTEDEKDLGVVLVDIGGGTTDIAIFAEGAIRHTAVIPIAGDQITSDIAMALRTPTPDAEDIKVGYGIAKQALADPDEMVEVPGLGERGPRTLSRQALAAVIEPRVEELFSLVQQVVRESGYEELLSSGVVITGGASMMPGMVELGEDIFLKPVRIGAPEYAGGLSDVVRNPRYSTAMGLLVEGSAQRMRGRKVAVQSGNAGQVFSRMKEWFLSNF
notes: FtsA of Burkholderia cenocepacia J2315 (gene ftsA, BCAL3458); Cloned in all four BACTH vectors; source: bacterial two-hybrid (BACTH) fusion, E. coli BTH101
B3: B. cenocepacia J2315 FtsZ, BACTH hybrid (natural protein, Burkholderia cenocepacia J2315, UniProt B4E5Y7 1-398, looked up)
chain: MEFEMLETETNGTIIKVVGVGGAGGNAVQHMINRGVQGVDFIVMNTDAQALSRSRASSVIQLGNTGLGAGAKPEMGRAAAEEARERIADALRGAHMVFITAGMGGGTGTGAAPVVAQIAKEMGILTVGVVSKPFEFEGGKRMRVAEAGSQQLEDHVDSLIVVLNDKLFDVMGDDAEMDKCFQCADDVLNNAVAGIAEIINVDGLVNVDFEDVKTVMGEQGKAMMGTATVAGVDRARLAAEQAVASPLLEGVDLSGARGVLVNITSSRSLRLSETREVMNTIKSYAAEDATVIFGAVYDDAMGDALRVTVVATGLGRAAKKQQSAPMTLLRTGTDNQPVSAVSHGYAPAQHVSTADYGALDTPAVWRNSRETAASHVQALQEKGVDTYDIPAFLRKQAD
notes: FtsZ of Burkholderia cenocepacia J2315; gene amplified from genomic DNA; Cloned in all four BACTH vectors (pUT18, pUT18C, pKT25, pKNT25); by its place between BCAL3458 and BCAL3456 probably BCAL3457 (surmised); source: bacterial two-hybrid (BACTH) fusion, E. coli BTH101

Legend:
[1] = molecular target: B3; assay: two-hybrid; BACTH (bacterial adenylate cyclase two-hybrid) in E. coli cya strain BTH101; T18 and T25 hybrids; beta-galactosidase on LB-IPTG-X-Gal and MacConkey plates and in liquid culture, 30 C; at least four-fold over BTH101(pUT18/pKT25) counted as an interaction
[2] = molecular target: T1, MraZ (Burkholderia cenocepacia J2315) (UniProt B4E6K1); assay: EMSA; conditions: 20 mM Tris-HCl pH 7.5, 100 mM NaCl, 5 mM MgCl2, 0.1 mM DTT, 150 ng/uL BSA, 50 ng/uL herring sperm DNA, 30 min 37 C; 1.5% agarose in 0.5x TBE at 4 C
T1 sequence: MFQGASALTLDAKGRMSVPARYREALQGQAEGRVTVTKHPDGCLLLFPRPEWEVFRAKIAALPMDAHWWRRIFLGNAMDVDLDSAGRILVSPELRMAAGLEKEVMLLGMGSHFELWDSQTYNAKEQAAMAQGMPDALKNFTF

[3] = molecular target: B. cenocepacia FtsZ, protein of the sedimentation assays (Burkholderia cenocepacia); assay: co-sedimentation; with vesicles of E. coli total lipid extract (2 mg/mL); proteins 12 uM, 25 mM PIPES pH 6.8, 10 mM MgCl2, 2 mM GTP and/or ATP; 10 min 30 C; 20,000 x g 25 min 20 C
[4] = molecular target: B. cenocepacia J2315 FtsZ, BACTH hybrid (Burkholderia cenocepacia J2315) (UniProt B4E5Y7); assay: two-hybrid; BACTH (bacterial adenylate cyclase two-hybrid) in E. coli cya strain BTH101; T18 and T25 hybrids; beta-galactosidase on LB-IPTG-X-Gal and MacConkey plates and in liquid culture, 30 C; at least four-fold over BTH101(pUT18/pKT25) counted as an interaction
[5] = molecular target: T1, MraZ (Burkholderia cenocepacia J2315); assay: competition; conditions: 20 mM Tris-HCl pH 7.5, 100 mM NaCl, 5 mM MgCl2, 0.1 mM DTT, 150 ng/uL BSA, 50 ng/uL herring sperm DNA, 30 min 37 C; 1.5% agarose in 0.5x TBE at 4 C
[6] = molecular target: B1; assay: two-hybrid; BACTH (bacterial adenylate cyclase two-hybrid) in E. coli cya strain BTH101; T18 and T25 hybrids; beta-galactosidase on LB-IPTG-X-Gal and MacConkey plates and in liquid culture, 30 C; at least four-fold over BTH101(pUT18/pKT25) counted as an interaction
[7] = molecular target: the molecule itself; assay: as above

Question: For “B. cenocepacia J2315 ZapA, BACTH hybrid (natural protein)”, which β-galactosidase activity, fold over the control strain [1] is on record?
Answer: 10 fold

Question: For “GGAGCGGCCCGCTTTTTTGACGAATTTTGTTAGTTAGAACAAGGACTTACGCGCACATGCTCATGCGACCCCTCATTCCAAAAACCGTTATAAATGAATGAGCTAGTGCAACTTGTGAAGGTGATACGTGAGAAAGACGGCCCAGACGGGCGTGCGGACGGGGCTTTCGGGGGCGGGAAAACGAGGAGTGAGCGGGCGGTATCGGGGGCGGTGAACCGGGGCGGCGTCCCACGCCACCCCGGCGCCAATC (double strand) [BS1-6-Fam]”, which binding [2] is on record?
Answer: no binding

Question: “B. cenocepacia J2315 FtsE, BACTH hybrid (natural protein)” was tested. Which β-galactosidase activity, fold over the control strain [1] did it give?
Answer: 50 fold

Question: “B. cenocepacia FtsZ, protein of the sedimentation assays (natural protein)” was tested. Which percent of the protein in the pellet fraction [3] did it give?
Answer: 50%

Question: How did the β-galactosidase activity, fold over the control strain [4] turn out when “B. cenocepacia J2315 FtsQ, BACTH hybrid (natural protein)” was run?
Answer: 16 fold

Question: How did the binding [5] turn out when “AAGTTGCACTAGCTCATTCATTTATAACGGTTTTTGGAATGAGGGGTCGCATGAGCATGTGCGCGTAAGTCCTTGTTCTAACTAACAAAATTCGTCAAAAAAGCGGGCCGCTCCCTTGACCGTGCCACACCCTTCCTCTAAAGTGGGAGACAGTGTGAGAAAGTGTATTTTTGTGTGATTTAGCAGGCTATTCCGGCTAAATTCTCAGCATTGAGCGGGTGCTTCGGTGCCCTGAACGGGAGAGCGGAAA (double strand) [BS2 unlabeled]” was run?
Answer: binds

Question: How did the β-galactosidase activity, fold over the control strain [6] turn out when “B. cenocepacia J2315 FtsN, BACTH hybrid (natural protein)” was run?
Answer: 5 fold

Question: Which binding [2] does the source give for “AAGTTGCACTAGCTCATTCATTTATAACGGTTTTTGGAATGAGGGGTCGCATGAGCATGTGCGCGTAAGTCCTTGTTCTAACTAACAAAATTCGTCAAAAAAGCGGGCCGCTCCCTTGACCGTGCCACACCCTTCCTCTAAAGTGGGAGACAGTGTGAGAAAGTGTATTTTTGTGTGATTTAGCAGGCTATTCCGGCTAAATTCTCAGCATTGAGCGGGTGCTTCGGTGCCCTGAACGGGAGAGCGGAAA (double strand) [BS2-6-Fam]” here?
Answer: binds

Question: With B1 as the molecule, how does the “β-galactosidase activity, fold over the control strain” value (“β-galactosidase activity, fold” below) ([1]; partners not purified) read?
Answer: 5 fold

B2: B. cenocepacia J2315 ZipA, BACTH hybrid (natural protein, Burkholderia cenocepacia J2315, UniProt B4ECN7 1-424, looked up)
chain: MDELTLGLIGAGAVVVGGVVVYNAWQGAKVRRRMPRPMPEEAAEAMNRPERDEELPFIEPVRQPVRREPAAPVAAATAAAETARVEPTFGGAAPADTPADLQAEATGVDTSAESSEPAAGEEAVPAATHDAAAEPAEPTEPVMPAATTVSSAPPAIVDRRIDCIVPIRLTGPLPGDKILPVAQRLRRAGSKPVHIEGKPEGGQWELLQNGVRYEELRAAAQLANRSGALNELEFSEFVTGVQQFADAIDGAPEFPDMMETVAMARELDAFAAQCDAQLSINVMSDGAPWSANYVQAVASQDGLLLSRDGTRFVKLDAKQNPVFMLQFGDTNFLRDDLTYKGGNMITLVLDVPVAEEDILPFRLMCDYAKSLSERIGARVVDDSRRPLPESTLLAIEQQLMKLYAKLEEAGIPAGSPVTRRLFSQ
notes: ZipA of Burkholderia cenocepacia J2315 (gene zipA, BCAL2097); Cloned in all four BACTH vectors; source: bacterial two-hybrid (BACTH) fusion, E. coli BTH101
Question: For B2, which “β-galactosidase activity, fold” value ([6]; partners not purified) is on record?
Answer: 32 fold

Question: And the “β-galactosidase activity, fold” value ([1]; partners not purified)?
Answer: 4.5 fold

Question: Which “β-galactosidase activity, fold” value [7] does the source give for B3 here?
Answer: 5 fold

B4: putative SulA (pBCA006) of B. cenocepacia J2315, BACTH hybrid (natural protein, Burkholderia cenocepacia J2315, UniProt B4EQP0 1-238, looked up)
chain: MHPALAHPEAIHPALWRASQLARPSVRGVDTGHLELTAELPGGGWPAGALIELLAPQPGIGELRLLAPVLARTAGKPVMLIQPPHALQPLALAYWGIDPSGFVTLPAPRTADALWAAEQALRAGTCAAVLLWQSHVRADALRRLNLAAQSGQALFYLFRPVAAARDASPAPLRLALAPKRDGIDVTFLKRRGPARDTPLFVPLSPSPILLNRHASLDRRASAAPQPRSVPATIAGAVA
notes: putative SulA, product of gene pBCA006 of Burkholderia cenocepacia J2315; Cloned in all four BACTH vectors; source: bacterial two-hybrid (BACTH) fusion, E. coli BTH101
Question: How did the “β-galactosidase activity, fold” value ([1]; partners not purified) turn out when B4 was run?
Answer: 25 fold
